According to patent US20210324054A1:
Where a chain is given by its changes, count along the chain named.

Target: DN-IV quality control recombinant protein (produced by the company) (dengue virus)
Test: BLI, antibody on AMC sensor

B1: Mutation 1-43 (antibody, V domains shown)
VH: EVQLQQPGPELVKPGASVKMSCKASGYTFTSSVIHWVRQKPGQGLEWIGYMNPYNDGIKYNEKFIGKAILTSDKSSSTAYMQLSSLTSEDSAVYYCTKEGLFYVMDYWGQGTSVTVSS
VL: QIVLTQSPAIMSASPGEKVTMTCSATSSLSYMHWYQQKSGTSPKRWIYDTSKLASGVPVRFSGSGSGTSYSLTISSMEAEDAATYFCQYWRSDLPTFGAGTKLELKR
Question: Which Kd does the source give for B1 here?
Answer: 0.624 nM

Question: What about the koff of the same binder?
Answer: 0.000256 s⁻¹

Question: What about the kon of the same binder?
Answer: 410000 M⁻¹ s⁻¹

B2: WT 1-14 (antibody, V domains shown)
VH: B1 VH with F29V, P53A, I58L, E62D, K98R, M105F
VL: B1 VL with A25G, T50S, G56P, Y89W, D93V
Question: How did the Kd turn out when B2 was run?
Answer: 45.6 nM

Question: And the koff?
Answer: 0.000188 s⁻¹

Question: What about the kon of the same binder?
Answer: 4120 M⁻¹ s⁻¹

B3: WT 1-19 (antibody, V domains shown)
VH: B1 VH with F29V, S32Y, P53A, E62D
VL: B1 VL with A25G, L29V, T50S, G56P, Y89Q, D93V
Question: How did the Kd turn out when B3 was run?
Answer: 35.4 nM

Question: And the koff?
Answer: 0.000162 s⁻¹

Question: What about the kon of the same binder?
Answer: 4570 M⁻¹ s⁻¹

B4: Mutation 1-47 (antibody, V domains shown)
VH: B1 VH with S32Y, K98R, M105F
VL: B1 VL with L29I, T50S
Question: With B4 as the binder, how does the Kd read?
Answer: 0.57 nM

Question: What about the koff of the same binder?
Answer: 0.000211 s⁻¹

Question: What about the kon of the same binder?
Answer: 370000 M⁻¹ s⁻¹

B5: Mutation 1-44 (antibody, V domains shown)
VH: B1 VH with S32Y, I58L, K98R, M105F
VL: B1 VL with L29V, T50S
Question: Which Kd does the source give for B5 here?
Answer: 2.63 nM

Question: What about the koff of the same binder?
Answer: 0.00011 s⁻¹

Question: And the kon?
Answer: 41800 M⁻¹ s⁻¹

B6: Mutation 1-52 (antibody, V domains shown)
VH: B1 VH with I58L, M105F
VL: B1 VL with T50S, Y89Q
Question: B6 was tested. Which Kd did it give?
Answer: 3.02 nM

Question: What about the koff of the same binder?
Answer: 0.000124 s⁻¹

Question: What about the kon of the same binder?
Answer: 41000 M⁻¹ s⁻¹

B7: Mutation 1-51 (antibody, V domains shown)
VH: B1 VH with S32T, I58L, K98R
VL: B1 VL with L29I, T50S, Y89W
Question: B7 was tested. Which Kd did it give?
Answer: 0.5 nM

Question: And the koff?
Answer: 0.000201 s⁻¹

Question: What about the kon of the same binder?
Answer: 402000 M⁻¹ s⁻¹

B8: Mutation 1-50 (antibody, V domains shown)
VH: B1 VH with S32Y, I58L, M105F
VL: B1 VL with L29I
Question: For B8, which Kd is on record?
Answer: 3.79 nM

Question: What about the koff of the same binder?
Answer: 0.000167 s⁻¹

Question: And the kon?
Answer: 44100 M⁻¹ s⁻¹

B9: WT 1-5 (antibody, V domains shown)
VH: B1 VH with F29V, S32Y, P53A, I58L, E62D, M105F
VL: B1 VL with A25G, L29V, T50S, G56P, Y89W, D93V
Question: How did the Kd turn out when B9 was run?
Answer: 57.8 nM

Question: And the koff?
Answer: 0.000264 s⁻¹

Question: And the kon?
Answer: 4570 M⁻¹ s⁻¹

B10: Mutation 1-46 (antibody, V domains shown)
VH: B1 VH with I58L, K98R
VL: B1 VL with L29V, Y89Q
Question: Which results are given for B10?
Answer: Kd: 0.569 nM; koff: 0.000222 s⁻¹; kon: 390000 M⁻¹ s⁻¹

B11: Mutation 1-53 (antibody, V domains shown)
VH: B1 VH with S32Y, K98R
VL: B1 VL with L29V
Question: What does the source list for B11?
Answer: Kd: 2.71 nM; koff: 0.000115 s⁻¹; kon: 42500 M⁻¹ s⁻¹

B12: Mutation 1-48 (antibody, V domains shown)
VH: B1 VH with S32T, I58L
VL: B1 VL with T50S, Y89W
Question: How did the Kd turn out when B12 was run?
Answer: 0.665 nM

Question: What about the koff of the same binder?
Answer: 0.000248 s⁻¹

Question: What about the kon of the same binder?
Answer: 373000 M⁻¹ s⁻¹

B13: Mutation 1-45 (antibody, V domains shown)
VH: B1 VH with S32T, M105F
VL: B1 VL with T50S, Y89W
Question: With B13 as the binder, how does the Kd read?
Answer: 4.22 nM

Question: And the koff?
Answer: 0.000174 s⁻¹

Question: And the kon?
Answer: 41200 M⁻¹ s⁻¹

B14: Mutation 1-49 (antibody, V domains shown)
VH: B1 VH with K98R, M105F
VL: B1 VL with L29V, Y89Q
Question: Which results are given for B14?
Answer: Kd: 0.765 nM; koff: 0.000299 s⁻¹; kon: 391000 M⁻¹ s⁻¹

B15: WT 1-11 (antibody, V domains shown)
VH: B1 VH with F29V, S32T, P53A, E62D, K98R
VL: B1 VL with A25G, L29I, G56P, D93V
Question: For B15, which Kd is on record?
Answer: 57.1 nM

Question: What about the koff of the same binder?
Answer: 0.000244 s⁻¹

Question: What about the kon of the same binder?
Answer: 4270 M⁻¹ s⁻¹
